Measured values from US20190127432A1.

Target: FSH receptor on CHO-FSHR cells (Homo sapiens (Human)) (UniProt P23945)
Test: cell-based or functional assay

UniProt P23945, sequence (P23945 18-695 limits assumed, form in doubt): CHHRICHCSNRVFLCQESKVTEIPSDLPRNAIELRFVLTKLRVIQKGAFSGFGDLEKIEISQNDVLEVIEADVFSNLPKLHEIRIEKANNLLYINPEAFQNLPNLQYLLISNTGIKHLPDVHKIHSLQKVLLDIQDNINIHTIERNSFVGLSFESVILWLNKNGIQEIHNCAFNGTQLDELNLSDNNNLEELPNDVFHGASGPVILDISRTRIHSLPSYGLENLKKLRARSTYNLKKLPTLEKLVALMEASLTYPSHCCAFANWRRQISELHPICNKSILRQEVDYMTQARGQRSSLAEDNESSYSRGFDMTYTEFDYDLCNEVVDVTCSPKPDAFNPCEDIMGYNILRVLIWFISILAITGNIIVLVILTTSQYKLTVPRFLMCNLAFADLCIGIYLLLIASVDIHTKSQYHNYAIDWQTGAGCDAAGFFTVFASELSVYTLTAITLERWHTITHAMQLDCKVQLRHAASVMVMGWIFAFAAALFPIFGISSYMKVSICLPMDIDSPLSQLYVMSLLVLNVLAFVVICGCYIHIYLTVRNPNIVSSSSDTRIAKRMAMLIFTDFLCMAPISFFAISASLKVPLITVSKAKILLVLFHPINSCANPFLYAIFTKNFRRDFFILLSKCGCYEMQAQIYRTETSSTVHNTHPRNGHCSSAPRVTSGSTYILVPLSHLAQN

Elonva (ligand)
EC50 (ng/ml), cAMP stimulation in CHO-FSHR cells: 4.15 ng/mL | Potency difference, cAMP stimulation in CHO-FSHR cells: 1.3 fold | Vmax (%), cAMP stimulation in CHO-FSHR cells: 99.3% | Vmax (pmol/ml), cAMP stimulation in CHO-FSHR cells: 293 pmol/mL
